# US20150183856A1 (ABLBIO, published 2015)
# Assays:
# [1] = target: T1, human DLL4 extracellular domain protein, His-tagged (R&D System Cat: 1506-D4/CF) (human, UniProt Q9NR61 27-522); assay: ELISA solution competition: antibody premixed with DLL4-His; blocks binding to plate-coated hNotch-1-hFc
# T1 construct: range 27-522; Bought protein; also called hDLL4-His; human DLL4-His; not shown: C-terminal histidine tag
# Description: Each well of a 96-well microtiter plate (Nunc-Immuno Plate, NUNC, Rochester, N.Y.) was coated with 100 μl of 500 ng/ml of hNotch-1-hFc protein (R&D Systems) (diluted in PBS) at 4° C. overnight, and non-specific binding sites were blocked with BSA for 2 hours.
# The anti-DLL4 antibody (purified protein) on the 96-well microtiter plate was premixed with serial dilutions of antigen protein (DLL4 antigen, 600 ng/m) at an antibody concentration ranging from 0 nM to 140 nM. The antigen/antibody mixture was incubated for 30 minutes, and then transferred to a microtiter plate precoated with the DLL4 receptor hNotch-1 protein (50 ng/well) in order to measure free antibody. Then, the plate was incubated for 2 hours and washed five times with 0.05% tween 20-containing PBS. In order to detect the DLL4 antigen bound to the plate, an HRP-conjugated His anti-mouse IgG polyclonal antibody reagent (Roche applied science) was diluted at a ratio of 1:500, and the washed microtiter plate was treated with the diluted antibody reagent, and then allowed to react at 37° C. for 1 hour. Then, color development was performed using a colorimetric substrate (3,3′,5,5′-tetramethylbenzidine; Sigma-Aldrich Co.), and the enzymatic reaction was stopped using 0.5 mol/l of sulfuric acid. The amounts of antibodies required to achieve a 50% decrease in human DLL4-His bound to plate-coated Notch 1-Fc (IC₅₀) are shown in Table 1 below.
# [2] = target: T1, human DLL4 extracellular domain …; assay: SPR (Biacore T200), hDLL4 immobilised on a CM5 chip, antibody as analyte; the table says 'Bivalent binding'
# Description: To be specific, Biacore T200 was used in SPR analysis and HBS-EP (10 mM HEPES, pH7.4, 150 mM NaCl, 3 mM EDTA, 0.15% surfactant P20) was used as a running buffer. Surface preparation was done by using a surface preparation target immobilization tool of a wizard program (condition: 25° C., 5 μl/min). A ligand, hDLL4, was diluted in 10 mM sodium acetate (pH 4.5) to a final concentration of 10 μg/ml, and then immobilized to the surface of CM5 chip by a target immobilization level for each test group. In the immobilization process, two flow cells were included as one set wherein the first flow cell was set as a blank and the second flow cell has hDLL4 immobilized to the surface thereof in the present experiment. The first flow cell acted as a reference to account for experimental variability due to nonspecific bindings and buffer effects, and in the analysis, subtracted RU values (Fc2-Fc1) were used as experimental results. Anti-DLL4 antibodies that bind to hDLL4, i.e., MLCK1, MLCK2, MLCK-3, and MLCK4, were diluted in a running buffer to a final molar concentration of 100 nM, serially diluted 5 times, and each of the 5 dilutions was analyzed. The sample to be analyzed was prepared to have high purity and high concentration, enough to be diluted more than 100 times at minimum, thereby minimizing buffer effect. All analysis was done by using a wizard program, screening duplicates for each sample and a regeneration step was included in between each analysis step, so that the standard of experiment remains constant. The experimental results were analyzed by Biaevaluation software version 4.0. At this time, to determine the RU values (Fc2-Fc1 and Fc4-Fc3), the baseline was set to zero, the value measured at a buffer injection part (analyte, 0 nM) was subtracted from a whole sensorgram. […] The factors to be analyzed include kₐ(M⁻¹s⁻¹), kd(s⁻¹), Kₐ(1/M), and KD(M). […] Equilibrium dissociation constant KD(M) was calculated by dividing kd with kₐ (kd/kₐ).
# [3] = target: T2, human DLL4 stably expressed on HEK 293 cells (human, UniProt Q9NR61 27-685); assay: flow cytometry on HEK293 cells stably expressing human DLL4, 10 ug antibody
# T2 construct: whole, on cells; also called human DLL4 antigen
# T2 sequence (Q9NR61 27-685): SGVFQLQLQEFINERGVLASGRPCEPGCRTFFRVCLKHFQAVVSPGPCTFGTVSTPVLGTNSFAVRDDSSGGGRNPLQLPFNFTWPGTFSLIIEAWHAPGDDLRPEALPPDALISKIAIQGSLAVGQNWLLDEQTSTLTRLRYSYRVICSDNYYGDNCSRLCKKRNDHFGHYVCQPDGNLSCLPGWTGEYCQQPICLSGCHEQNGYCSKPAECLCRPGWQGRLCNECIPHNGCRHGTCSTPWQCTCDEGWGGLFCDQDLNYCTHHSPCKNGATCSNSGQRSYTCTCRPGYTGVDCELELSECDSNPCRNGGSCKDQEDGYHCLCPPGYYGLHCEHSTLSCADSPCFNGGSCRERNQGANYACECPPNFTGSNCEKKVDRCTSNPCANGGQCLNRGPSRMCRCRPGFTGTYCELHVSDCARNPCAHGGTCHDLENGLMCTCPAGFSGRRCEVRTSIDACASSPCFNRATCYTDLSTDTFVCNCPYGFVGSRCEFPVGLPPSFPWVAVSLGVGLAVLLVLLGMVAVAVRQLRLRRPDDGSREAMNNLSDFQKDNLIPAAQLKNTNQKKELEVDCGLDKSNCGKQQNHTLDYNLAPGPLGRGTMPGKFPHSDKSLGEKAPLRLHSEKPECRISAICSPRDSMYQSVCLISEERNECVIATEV
# Description: Specifically, human embryonic kidney cells (HEK 293) that stably express human DLL4 were prepared, and the degree of binding of the anti-DLL4 antibodies to DLL4 was measured using the prepared cells and a FACSCalibur system (BD Biosciences). The HEK293 cells that stably expressed DLL4 were dissociated, washed with PBS, adjusted to a cell number of 1×10⁵ cells/200 μl PBS, treated with 10 μg of each of the DLL4 monoclonal antibodies, and then allowed to react at room temperature for 30 minutes. After the reaction, the cells were washed with PBS and reacted with an FITC-labeled Fc-specific antibody (goat anti-human IgG FITC conjugate, Fc specific, Sigma, F9512; concentration: 2.0 mg/ml) at a concentration of 5 μl/1×10⁵ cells/200 μl PBS at 4° C. for 1 hours. After the reaction, the cells were washed with PBS and analyzed using a FACSCalibur system. A control group was treated only with an FITC-labeled Fc-specific antibody. The results of analysis of human DLL4-minoclonal antibody-FITC binding in the test group treated with each of the DLL4 monoclonal antibodies were compared with those in the control group.
# [4] = target: T1, human DLL4 extracellular domain …; assay: SPR (Biacore T200), hDLL4 immobilized on CM5 chip, antibody as analyte, 1:1 model
# Description: To be specific, Biacore T200 was used in SPR analysis and HBS-EP (10 mM HEPES, pH7.4, 150 mM NaCl, 3 mM EDTA, 0.15% surfactant P20) was used as a running buffer. Surface preparation was done by using a surface preparation target immobilization tool of a wizard program (condition: 25° C., 5 μl/min). A ligand, hDLL4, was diluted in 10 mM sodium acetate (pH 4.5) to a final concentration of 10 μg/ml, and then immobilized to the surface of CM5 chip by a target immobilization level for each test group. In the immobilization process, two flow cells were included as one set wherein the first flow cell was set as a blank and the second flow cell has hDLL4 immobilized to the surface thereof in the present experiment. The first flow cell acted as a reference to account for experimental variability due to nonspecific bindings and buffer effects, and in the analysis, subtracted RU values (Fc2-Fc1) were used as experimental results. Anti-DLL4 antibodies that bind to hDLL4, i.e., MLCK1, MLCK2, MLCK-3, and MLCK4, were diluted in a running buffer to a final molar concentration of 100 nM, serially diluted 5 times, and each of the 5 dilutions was analyzed. The sample to be analyzed was prepared to have high purity and high concentration, enough to be diluted more than 100 times at minimum, thereby minimizing buffer effect. All analysis was done by using a wizard program, screening duplicates for each sample and a regeneration step was included in between each analysis step, so that the standard of experiment remains constant. The experimental results were analyzed by Biaevaluation software version 4.0. At this time, to determine the RU values (Fc2-Fc1 and Fc4-Fc3), the baseline was set to zero, the value measured at a buffer injection part (analyte, 0 nM) was subtracted from a whole sensorgram. Then, the resulting RU value was analyzed by a 1:1 binding model to determine a binding affinity. The factors to be analyzed include kₐ(M⁻¹s⁻¹), kd(s⁻¹), Kₐ(1/M), and KD(M). […] Equilibrium dissociation constant KD(M) was calculated by dividing kd with kₐ (kd/kₐ).
# [5] = target: T1, human DLL4 extracellular domain …; assay: ELISA, plate coated with hDLL4-His 2 ug/ml, bound antibody detected with HRP-conjugated anti-Fab
# Description: The anti-DLL4 antibody-antigen binding affinity was evaluated using an ELISA-based binding test. A 96-well microtiter plate (Nunc-Immuno Plate, NUNC, Rochester, N.Y.) was coated with 2 μg/ml of hDLL4-His protein in PBS solution at 4° C. overnight, and non-specific binding sites were blocked with BSA (bovine serum albumin) for 2 hours. The anti-DLL4 antibody (purified protein) on the 96-well microtiter plate was transferred to a microtiter plate at an antibody concentration ranging from 0 nM to 128 nM. Then, the plate was incubated for 2 hours, after which the plate was washed five times with 0.05% tween 20-containing PBS, and in order to detect the plate-bound DLL4 antibody, an HRP-conjugated Fab polyclonal antibody reagent (Pierce) was diluted at a ratio of 1:10,000, transferred to the washed microtiter plate, and then allowed to react at 37° C. for 1 hour. After the reaction, color development was performed using a colorimetric substrate (3,3′,5,5′-tetramethylbenzidine; Sigma-Aldrich Co.). The enzymatic reaction was stopped using 0.5 mol/l of sulfuric acid, and the absorbance at 450 nm-650 nm was recorded using a microplate reader (molecular device). As a result, it was shown that the binding affinities of the antibodies for DLL4 increased in a concentration-dependent manner (FIG. 2).
# T1 sequence (Q9NR61 27-522 limits assumed): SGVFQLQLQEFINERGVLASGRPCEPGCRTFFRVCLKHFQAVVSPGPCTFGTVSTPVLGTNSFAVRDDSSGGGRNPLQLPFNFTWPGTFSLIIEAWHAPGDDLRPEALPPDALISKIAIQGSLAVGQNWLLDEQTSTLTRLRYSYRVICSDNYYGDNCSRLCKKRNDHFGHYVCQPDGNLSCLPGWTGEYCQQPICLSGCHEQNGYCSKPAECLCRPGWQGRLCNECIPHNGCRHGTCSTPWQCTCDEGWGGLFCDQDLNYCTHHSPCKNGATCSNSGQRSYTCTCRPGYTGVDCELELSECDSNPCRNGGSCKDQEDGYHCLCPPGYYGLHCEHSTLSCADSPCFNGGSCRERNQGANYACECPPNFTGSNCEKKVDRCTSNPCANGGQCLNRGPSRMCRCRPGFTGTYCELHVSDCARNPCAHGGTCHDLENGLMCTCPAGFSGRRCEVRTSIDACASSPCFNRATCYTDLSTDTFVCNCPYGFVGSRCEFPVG
Binder,IC50 [1] [nM],Ka [2] [M⁻¹],koff [2] [s⁻¹],kon [2] [M⁻¹ s⁻¹],degree of binding to DLL4 antigen compared to the control group [3] [%],Kd [4] [nM],EC50 (read off the curve) [5] [pM]
"MLCK-4 (antibody, V domains shown, Human monoclonal antibody from a phage scFv library; Only the variable regions are tied to the clone; In flow cytometry it was detected with an anti-human IgG Fc-specific antibody, so it carries a human Fc; also called anti-DLL4 antibody) VH: EVQLLESGGGLVQPGGSLRLSCAASGFTFSNYAMSWVRQAPGKGLEWVSWIYHGGGDTYYADSVKGRFTISRDNSKNTLYLQMNSLRAEDTAVYYCARGPNYTFGKPFDYWGQGTLVTVSS VL: QSVLTQPPSASGTPGQRVTISCRGSPSNIGNNTVYWYQQLPGTAPKLLIYSDSQRPSGVPDRFSGSKSGTSASLAISGLRSEDEADYYCGSWDYSLSAYVFGGGTKLTVL",3.72,469000,0.00474,2220,52.5,2130,~0.2
"MLCK-1 (antibody, V domains shown, Human monoclonal antibody from a phage scFv library; Only the variable regions are tied to the clone; In flow cytometry it was detected with an anti-human IgG Fc-specific antibody, so it carries a human Fc; also called anti-DLL4 antibody) VH: EVQLLESGGGLVQPGGSLRLSCAASGFTFSDYAMSWVRQAPGKGLEWVSWIYSDDGNKYYADSVKGRFTISRDNSKNTLYLQMNSLRAEDTAVYYCARADPPFDYWGQGTLVTVSS VL: QSVLTQPPSASGTPGQRVTISCTGSSSNIGSNNVSWYQQLPGTAPKLLIYSDNNRPSGVPDRFSGSKSGTSASLAISGLRSEDEADYYCATWDSSLNGYVFGGGTKLTVL",1.32,3.8e+06,0.0169,64100,47.8,263,~0.1
"MLCK-3 (antibody, V domains shown, Human monoclonal antibody from a phage scFv library; Only the variable regions are tied to the clone; In flow cytometry it was detected with an anti-human IgG Fc-specific antibody, so it carries a human Fc; also called anti-DLL4 antibody) VH: EVQLLESGGGLVQPGGSLRLSCAASGFTFSDYAMSWVRQAPGKGLEWVSWIYYDSGSKYYADSVKGRFTISRDNSKNTLYLQMNSLRAEDTAVYYCARADLPFDYWGQGTLVTVSS VL: QSVLTQPPSASGTPGQRVTISCSGSSSNIGNNAVTWYQQLPGTAPKLLIYSDNHRPSGVPDRFSGSKSGTSASLAISGLRSEDEADYYCGTWDASLSGYVFGGGTKLTVL",0.38,1.44e+08,0.00359,516000,52.9,6.96,~0.05
"MLCK-2 (antibody, V domains shown, Human monoclonal antibody from a phage scFv library; Only the variable regions are tied to the clone; In flow cytometry it was detected with an anti-human IgG Fc-specific antibody, so it carries a human Fc; also called MLCK-2 mAb; anti-DLL4 antibody) VH: EVQLLESGGGLVQPGGSLRLSCAASGFTFSDYAMSWVRQAPGKGLEWVSWIYSGSGNKYYADSVKGRFTISRDNSKNTLYLQMNSLRAEDTAVYYCARADWPFDYWGQGTLVTVSS VL: QSVLTQPPSASGTPGQRVTISCTGSSSNIGSNDVTWYQQLPGTAPKLLIYADSKRPSGVPDRFSGSKSGTSASLAISGLRSEDEADYYCGTWDYSLSAYVFGGGTKLTVL",0.41,5.86e+08,0.000232,136000,59,1.71,~0.04
